# Reference: PMC4167697
# Values joined by “and” are separate entries in the source; they are usually repeats but may differ in a detail not shown here. Equal entries are not always repeated.
# Experiments:
# protein G B1 [1] = assay: BLI; kinetic titration series; GB1 amine-coupled on AR2G sensors, IgG as analyte at 0.03125-0.5 µM in turn on one sensor; PBS with 0.05% Polysorbat 20, 25°C, 1000 rpm; each sensor pair fitted separately, 1:1 kinetic titration series model with RI-term
# protein G B1 [2] = assay: as above; remark: listed apart in the source
# protein G B1 [3] = assay: as above; remark: listed apart in the source
# protein G B1 [4] = assay: BLI; parallel sensor kinetics; GB1 amine-coupled on AR2G sensors, IgG as analyte at 0.03125-0.5 µM on five sensors in parallel; PBS with 0.05% Polysorbat 20, 25°C, 1000 rpm; global 1:1 fit with RI-term
# protein G B1 [5] = assay: BLI; kinetic titration series; GB1 amine-coupled on AR2G sensors, IgG as analyte at 0.03125-0.5 µM in turn on one sensor; PBS with 0.05% Polysorbat 20, 25°C, 1000 rpm; each sensor pair fitted separately, 1:1 kinetic titration series model with RI-term; remark: listed apart in the source
# protein G B1 [6] = assay: BLI; kinetic titration series, fitted without RI term (Figure S3B); GB1 on AR2G sensors, IgG as analyte
# protein G B1 [7] = assay: BLI; kinetic titration series; GB1 amine-coupled on AR2G sensors, IgG as analyte at 0.03125-0.5 µM in turn on one sensor; PBS with 0.05% Polysorbat 20, 25°C, 1000 rpm; each sensor pair fitted separately, 1:1 kinetic titration series model with RI-term; remark: listed apart in the source
# protein G B1 [8] = assay: BLI; parallel sensor kinetics, fitted without RI term (Figure S3A); GB1 on AR2G sensors, IgG as analyte
# protein G B1 [9] = assay: BLI; kinetic titration series; GB1 amine-coupled on AR2G sensors, IgG as analyte at 0.03125-0.5 µM in turn on one sensor; PBS with 0.05% Polysorbat 20, 25°C, 1000 rpm; each sensor pair fitted separately, 1:1 kinetic titration series model with RI-term; remark: listed apart in the source
# protein G B1 [10] = assay: as above; remark: listed apart in the source
# protein G B1 [11] = assay: BLI; kinetic titration series; GB1 amine-coupled on AR2G sensors, IgG as analyte at 0.03125-0.5 µM in sequence on one sensor; PBS with 0.05% Polysorbat 20, 25°C, 1000 rpm; 1:1 kinetic titration series model with RI-term; mean of 7 replicates
# protein G B1 [12] = assay: BLI; parallel sensor kinetics; GB1 amine-coupled on AR2G sensors, IgG as analyte at 0.03125-0.5 µM, one sensor for each concentration; PBS with 0.05% Polysorbat 20, 25°C, 1000 rpm; global 1:1 binding model with RI-term; two measurements (#1, #2)
substance,measurement,setting,value
rabbit IgG (ID: ABIN376828; Antibodies-Online) (antibody),Kd,protein G B1 [1],266 nM
same,koff,protein G B1 [1],0.00606 s⁻¹
same,kon,protein G B1 [1],22800 M⁻¹ s⁻¹
same,Kd,protein G B1 [2],50.4 nM
same,koff,protein G B1 [2],0.0016 s⁻¹
same,kon,protein G B1 [2],31800 M⁻¹ s⁻¹
same,Kd,protein G B1 [3],254 nM
same,koff,protein G B1 [3],0.00467 s⁻¹
same,kon,protein G B1 [3],18400 M⁻¹ s⁻¹
same,koff,protein G B1 [4],0.00702 s⁻¹
same,kon,protein G B1 [4],45100 M⁻¹ s⁻¹
same,Kd,protein G B1 [5],87.7 nM
same,koff,protein G B1 [5],0.00601 s⁻¹
same,kon,protein G B1 [5],68500 M⁻¹ s⁻¹
same,Kd,protein G B1 [6],107 nM
same,koff,protein G B1 [6],0.00185 s⁻¹
same,kon,protein G B1 [6],17300 M⁻¹ s⁻¹
same,Kd,protein G B1 [7],166 nM
same,koff,protein G B1 [7],0.00476 s⁻¹
same,kon,protein G B1 [7],28700 M⁻¹ s⁻¹
same,Kd,protein G B1 [8],186 nM
same,koff,protein G B1 [8],0.00317 s⁻¹
same,kon,protein G B1 [8],17000 M⁻¹ s⁻¹
same,Kd,protein G B1 [9],164 nM
same,koff,protein G B1 [9],0.00485 s⁻¹
same,kon,protein G B1 [9],29700 M⁻¹ s⁻¹
same,Kd,protein G B1 [10],124 nM
same,koff,protein G B1 [10],0.00551 s⁻¹
same,kon,protein G B1 [10],44300 M⁻¹ s⁻¹
rabbit immunoglobulin G (antibody),Kd,protein G B1 [11],159 nM
same,Kd,protein G B1 [12],156 nM and 253 nM
